In article PMC7392888:

Tested on: O=C(Cc1cccs1)N[C@@H]1C(=O)N2C(C(=O)O)=C(/C=C/c3ccc([N+](=O)[O-])cc3[N+](=O)[O-])CS[C@H]12
Experiment: purified protein
Settings: Zn2+ enzyme; steady-state buffer and pH not given here; King-Altman value from pre-steady-state data listed separately

Row | Substance | Km | kcat
1 | SAM-1 (Simiduia agarivorans SA1 = DSM 21679) | 20 ± 3 µM | 10 ± 5 s⁻¹
2 | MIM-1 (Novosphingobium pentaromativorans US6-1) | 41 ± 10 µM | 17 ± 4 s⁻¹
